According to PMC10770396, “Dimerization of the 4Ig isoform of B7-H3 in tumor cells mediates enhanced proliferation and tumorigenic signaling” (Communications Biology, 2024):

Key:
[1] = target: T1, 4Ig-B7-H3-mEGFP (human), Q5ZPR3; test: FRET or BRET; homo-FRET fluorescence lifetime imaging (FRET-FLIM, TCSPC) of mEGFP fusions in fixed, transiently transfected HeLa CD276-/- KO cells; bi-exponential fit; conditions: remark: other sources report otherwise
T1 chain: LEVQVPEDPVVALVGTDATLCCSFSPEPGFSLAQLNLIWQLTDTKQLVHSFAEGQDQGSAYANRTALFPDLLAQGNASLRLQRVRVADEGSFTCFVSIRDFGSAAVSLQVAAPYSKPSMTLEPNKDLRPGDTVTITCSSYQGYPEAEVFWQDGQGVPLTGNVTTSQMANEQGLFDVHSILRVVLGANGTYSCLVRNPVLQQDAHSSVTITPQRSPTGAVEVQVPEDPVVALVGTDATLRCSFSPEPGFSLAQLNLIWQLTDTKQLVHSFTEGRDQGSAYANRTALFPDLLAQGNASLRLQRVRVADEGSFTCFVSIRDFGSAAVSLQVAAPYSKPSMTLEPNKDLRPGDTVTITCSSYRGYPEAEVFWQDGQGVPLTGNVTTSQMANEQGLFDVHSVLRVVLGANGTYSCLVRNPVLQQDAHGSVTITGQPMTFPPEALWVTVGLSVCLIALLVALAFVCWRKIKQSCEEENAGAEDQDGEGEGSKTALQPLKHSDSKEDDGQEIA

[2] = target: the molecule itself; test: SEC; analytical SEC, Superdex 200 10/300, PBS + 0.1 M NaCl + 0.05% NaN3, flow 0.5 ml/min, protein at 100 μg/mL; apparent molecular weight from a calibration curve; monomer to dimer

B1: 4Ig-B7-H3-mEGFP, Q5ZPR3 29-534 (natural protein)
chain: LEVQVPEDPVVALVGTDATLCCSFSPEPGFSLAQLNLIWQLTDTKQLVHSFAEGQDQGSAYANRTALFPDLLAQGNASLRLQRVRVADEGSFTCFVSIRDFGSAAVSLQVAAPYSKPSMTLEPNKDLRPGDTVTITCSSYQGYPEAEVFWQDGQGVPLTGNVTTSQMANEQGLFDVHSILRVVLGANGTYSCLVRNPVLQQDAHSSVTITPQRSPTGAVEVQVPEDPVVALVGTDATLRCSFSPEPGFSLAQLNLIWQLTDTKQLVHSFTEGRDQGSAYANRTALFPDLLAQGNASLRLQRVRVADEGSFTCFVSIRDFGSAAVSLQVAAPYSKPSMTLEPNKDLRPGDTVTITCSSYRGYPEAEVFWQDGQGVPLTGNVTTSQMANEQGLFDVHSVLRVVLGANGTYSCLVRNPVLQQDAHGSVTITGQPMTFPPEALWVTVGLSVCLIALLVALAFVCWRKIKQSCEEENAGAEDQDGEGEGSKTALQPLKHSDSKEDDGQEIA
[1]
  mEGFP fluorescence lifetime, bi-exponential fit, first fraction: 2.57 ns
  mEGFP fluorescence lifetime, bi-exponential fit, second fraction: 1.33 ns

B2: human 4Ig-B7-H3 extracellular domain (amino acids: Gly27 – Thr461), recombinant (domain or fragment, UniProt Q5ZPR3 27-461, looked up)
chain: GALEVQVPEDPVVALVGTDATLCCSFSPEPGFSLAQLNLIWQLTDTKQLVHSFAEGQDQGSAYANRTALFPDLLAQGNASLRLQRVRVADEGSFTCFVSIRDFGSAAVSLQVAAPYSKPSMTLEPNKDLRPGDTVTITCSSYQGYPEAEVFWQDGQGVPLTGNVTTSQMANEQGLFDVHSILRVVLGANGTYSCLVRNPVLQQDAHSSVTITPQRSPTGAVEVQVPEDPVVALVGTDATLRCSFSPEPGFSLAQLNLIWQLTDTKQLVHSFTEGRDQGSAYANRTALFPDLLAQGNASLRLQRVRVADEGSFTCFVSIRDFGSAAVSLQVAAPYSKPSMTLEPNKDLRPGDTVTITCSSYRGYPEAEVFWQDGQGVPLTGNVTTSQMANEQGLFDVHSVLRVVLGANGTYSCLVRNPVLQQDAHGSVTITGQPMT
notes: B7-H3 (CD276), human, 4Ig isoform, extracellular domain, residues Gly27 – Thr461; commercial proteins of this kind often carry a C-terminal His tag (surmise); also called CD276; source: bought: R&D Systems (functionally active recombinant protein)
[2]
  stoichiometry N: 2

B3: murine 2Ig-B7-H3 extracellular domain (amino acids: Val29 – Phe244), recombinant (domain or fragment, UniProt Q8VE98 29-244, looked up)
chain: VEVQVSEDPVVALVDTDATLRCSFSPEPGFSLAQLNLIWQLTDTKQLVHSFTEGRDQGSAYSNRTALFPDLLVQGNASLRLQRVRVTDEGSYTCFVSIQDFDSAAVSLQVAAPYSKPSMTLEPNKDLRPGNMVTITCSSYQGYPEAEVFWKDGQGVPLTGNVTTSQMANERGLFDVHSVLRVVLGANGTYSCLVRNPVLQQDAHGSVTITGQPLTF
notes: B7-H3 (CD276), murine, 2Ig isoform, extracellular domain, residues Val29 – Phe244; also called murine B7-H3; source: bought: R&D Systems (functionally active recombinant protein)
[2]
  stoichiometry N: 2
